B1: D183C arrestin-1 (bovine, His(6), C63A/C143A) labeled with monobromobimane (other)
chain: MHHHHHHKANKPAPNHVIFKKISRDKSVTIYLGKRDYIDHVERVEPVDGVVLVDPELVKGKRVYVSLTAAFRYGQEDIDVMGLSFRRDLYFSQVQVFPPVGASGATTRLQESLIKKLGANTYPFLLTFPDYLPCSVMLQPAPQDVGKSAGVDFEIKAFATHSTDVEEDKIPKKSSVRLLIRKVQHAPRCMGPQPRAEASWQFFMSDKPLRLAVSLSKEIYYHGEPIPVTVAVTNSTEKTVKKIKVLVEQVTNVVLYSSDYYIKTVAAEEAQEKVPPNSSLTKTLTLVPLLANNRERRGIALDGKIKHEDTNLASSTIIKEGIDKTVMGILVSYQIKVKLTVSGLLGELTSSEVATEVPFRLMHPQPEDPDTAKESFQDENFVFEEFARQNLKDAGEYKEEKTDQEAAMDE
modifications: monobromobimane (mBBr) on Cys 183
notes: Cysteine-substitution mutant, made in Pichia pastoris
B2: K267C arrestin-1 (bovine, His(6), C63A/C143A) labeled with monobromobimane (other)
chain: MHHHHHHKANKPAPNHVIFKKISRDKSVTIYLGKRDYIDHVERVEPVDGVVLVDPELVKGKRVYVSLTAAFRYGQEDIDVMGLSFRRDLYFSQVQVFPPVGASGATTRLQESLIKKLGANTYPFLLTFPDYLPCSVMLQPAPQDVGKSAGVDFEIKAFATHSTDVEEDKIPKKSSVRLLIRKVQHAPRDMGPQPRAEASWQFFMSDKPLRLAVSLSKEIYYHGEPIPVTVAVTNSTEKTVKKIKVLVEQVTNVVLYSSDYYIKTVAAEEAQECVPPNSSLTKTLTLVPLLANNRERRGIALDGKIKHEDTNLASSTIIKEGIDKTVMGILVSYQIKVKLTVSGLLGELTSSEVATEVPFRLMHPQPEDPDTAKESFQDENFVFEEFARQNLKDAGEYKEEKTDQEAAMDE
modifications: monobromobimane (mBBr) on Cys 267
notes: as for B1
B3: R37C arrestin-1 (bovine, His(6), C63A/C143A) labeled with monobromobimane (other)
chain: MHHHHHHKANKPAPNHVIFKKISRDKSVTIYLGKRDYIDHVECVEPVDGVVLVDPELVKGKRVYVSLTAAFRYGQEDIDVMGLSFRRDLYFSQVQVFPPVGASGATTRLQESLIKKLGANTYPFLLTFPDYLPCSVMLQPAPQDVGKSAGVDFEIKAFATHSTDVEEDKIPKKSSVRLLIRKVQHAPRDMGPQPRAEASWQFFMSDKPLRLAVSLSKEIYYHGEPIPVTVAVTNSTEKTVKKIKVLVEQVTNVVLYSSDYYIKTVAAEEAQEKVPPNSSLTKTLTLVPLLANNRERRGIALDGKIKHEDTNLASSTIIKEGIDKTVMGILVSYQIKVKLTVSGLLGELTSSEVATEVPFRLMHPQPEDPDTAKESFQDENFVFEEFARQNLKDAGEYKEEKTDQEAAMDE
modifications: monobromobimane (mBBr) on Cys 37
notes: as for B1
B4: E302C arrestin-1 (bovine, His(6), C63A/C143A) labeled with monobromobimane (other)
chain: MHHHHHHKANKPAPNHVIFKKISRDKSVTIYLGKRDYIDHVERVEPVDGVVLVDPELVKGKRVYVSLTAAFRYGQEDIDVMGLSFRRDLYFSQVQVFPPVGASGATTRLQESLIKKLGANTYPFLLTFPDYLPCSVMLQPAPQDVGKSAGVDFEIKAFATHSTDVEEDKIPKKSSVRLLIRKVQHAPRDMGPQPRAEASWQFFMSDKPLRLAVSLSKEIYYHGEPIPVTVAVTNSTEKTVKKIKVLVEQVTNVVLYSSDYYIKTVAAEEAQEKVPPNSSLTKTLTLVPLLANNRERRGIALDGKIKHCDTNLASSTIIKEGIDKTVMGILVSYQIKVKLTVSGLLGELTSSEVATEVPFRLMHPQPEDPDTAKESFQDENFVFEEFARQNLKDAGEYKEEKTDQEAAMDE
modifications: monobromobimane (mBBr) on Cys 302
notes: as for B1
B5: K166C arrestin-1 (bovine, His(6), C63A/C143A) labeled with monobromobimane (other)
chain: MHHHHHHKANKPAPNHVIFKKISRDKSVTIYLGKRDYIDHVERVEPVDGVVLVDPELVKGKRVYVSLTAAFRYGQEDIDVMGLSFRRDLYFSQVQVFPPVGASGATTRLQESLIKKLGANTYPFLLTFPDYLPCSVMLQPAPQDVGKSAGVDFEIKAFATHSTDVEEDKIPCKSSVRLLIRKVQHAPRDMGPQPRAEASWQFFMSDKPLRLAVSLSKEIYYHGEPIPVTVAVTNSTEKTVKKIKVLVEQVTNVVLYSSDYYIKTVAAEEAQEKVPPNSSLTKTLTLVPLLANNRERRGIALDGKIKHEDTNLASSTIIKEGIDKTVMGILVSYQIKVKLTVSGLLGELTSSEVATEVPFRLMHPQPEDPDTAKESFQDENFVFEEFARQNLKDAGEYKEEKTDQEAAMDE
modifications: monobromobimane (mBBr) on Cys 166
notes: as for B1
B6: K28C arrestin-1 (bovine, His(6), C63A/C143A) labeled with monobromobimane (other)
chain: MHHHHHHKANKPAPNHVIFKKISRDKSVTIYLGCRDYIDHVERVEPVDGVVLVDPELVKGKRVYVSLTAAFRYGQEDIDVMGLSFRRDLYFSQVQVFPPVGASGATTRLQESLIKKLGANTYPFLLTFPDYLPCSVMLQPAPQDVGKSAGVDFEIKAFATHSTDVEEDKIPKKSSVRLLIRKVQHAPRDMGPQPRAEASWQFFMSDKPLRLAVSLSKEIYYHGEPIPVTVAVTNSTEKTVKKIKVLVEQVTNVVLYSSDYYIKTVAAEEAQEKVPPNSSLTKTLTLVPLLANNRERRGIALDGKIKHEDTNLASSTIIKEGIDKTVMGILVSYQIKVKLTVSGLLGELTSSEVATEVPFRLMHPQPEDPDTAKESFQDENFVFEEFARQNLKDAGEYKEEKTDQEAAMDE
modifications: monobromobimane (mBBr) on Cys 28
notes: as for B1
B7: D362C arrestin-1 (bovine, His(6), C63A/C143A) labeled with monobromobimane (other)
chain: MHHHHHHKANKPAPNHVIFKKISRDKSVTIYLGKRDYIDHVERVEPVDGVVLVDPELVKGKRVYVSLTAAFRYGQEDIDVMGLSFRRDLYFSQVQVFPPVGASGATTRLQESLIKKLGANTYPFLLTFPDYLPCSVMLQPAPQDVGKSAGVDFEIKAFATHSTDVEEDKIPKKSSVRLLIRKVQHAPRDMGPQPRAEASWQFFMSDKPLRLAVSLSKEIYYHGEPIPVTVAVTNSTEKTVKKIKVLVEQVTNVVLYSSDYYIKTVAAEEAQEKVPPNSSLTKTLTLVPLLANNRERRGIALDGKIKHEDTNLASSTIIKEGIDKTVMGILVSYQIKVKLTVSGLLGELTSSEVATEVPFRLMHPQPECPDTAKESFQDENFVFEEFARQNLKDAGEYKEEKTDQEAAMDE
modifications: monobromobimane (mBBr) on Cys 362
notes: as for B1
B8: R189C arrestin-1 (bovine, His(6), C63A/C143A) labeled with monobromobimane (other)
chain: MHHHHHHKANKPAPNHVIFKKISRDKSVTIYLGKRDYIDHVERVEPVDGVVLVDPELVKGKRVYVSLTAAFRYGQEDIDVMGLSFRRDLYFSQVQVFPPVGASGATTRLQESLIKKLGANTYPFLLTFPDYLPCSVMLQPAPQDVGKSAGVDFEIKAFATHSTDVEEDKIPKKSSVRLLIRKVQHAPRDMGPQPCAEASWQFFMSDKPLRLAVSLSKEIYYHGEPIPVTVAVTNSTEKTVKKIKVLVEQVTNVVLYSSDYYIKTVAAEEAQEKVPPNSSLTKTLTLVPLLANNRERRGIALDGKIKHEDTNLASSTIIKEGIDKTVMGILVSYQIKVKLTVSGLLGELTSSEVATEVPFRLMHPQPEDPDTAKESFQDENFVFEEFARQNLKDAGEYKEEKTDQEAAMDE
modifications: monobromobimane (mBBr) on Cys 189
notes: as for B1
B9: E218C arrestin-1 (bovine, His(6), C63A/C143A) labeled with monobromobimane (other)
chain: MHHHHHHKANKPAPNHVIFKKISRDKSVTIYLGKRDYIDHVERVEPVDGVVLVDPELVKGKRVYVSLTAAFRYGQEDIDVMGLSFRRDLYFSQVQVFPPVGASGATTRLQESLIKKLGANTYPFLLTFPDYLPCSVMLQPAPQDVGKSAGVDFEIKAFATHSTDVEEDKIPKKSSVRLLIRKVQHAPRDMGPQPRAEASWQFFMSDKPLRLAVSLSKEIYYHGCPIPVTVAVTNSTEKTVKKIKVLVEQVTNVVLYSSDYYIKTVAAEEAQEKVPPNSSLTKTLTLVPLLANNRERRGIALDGKIKHEDTNLASSTIIKEGIDKTVMGILVSYQIKVKLTVSGLLGELTSSEVATEVPFRLMHPQPEDPDTAKESFQDENFVFEEFARQNLKDAGEYKEEKTDQEAAMDE
modifications: monobromobimane (mBBr) on Cys 218
notes: as for B1
B10: E50C arrestin-1 (bovine, His(6), C63A/C143A) labeled with monobromobimane (other)
chain: MHHHHHHKANKPAPNHVIFKKISRDKSVTIYLGKRDYIDHVERVEPVDGVVLVDPCLVKGKRVYVSLTAAFRYGQEDIDVMGLSFRRDLYFSQVQVFPPVGASGATTRLQESLIKKLGANTYPFLLTFPDYLPCSVMLQPAPQDVGKSAGVDFEIKAFATHSTDVEEDKIPKKSSVRLLIRKVQHAPRDMGPQPRAEASWQFFMSDKPLRLAVSLSKEIYYHGEPIPVTVAVTNSTEKTVKKIKVLVEQVTNVVLYSSDYYIKTVAAEEAQEKVPPNSSLTKTLTLVPLLANNRERRGIALDGKIKHEDTNLASSTIIKEGIDKTVMGILVSYQIKVKLTVSGLLGELTSSEVATEVPFRLMHPQPEDPDTAKESFQDENFVFEEFARQNLKDAGEYKEEKTDQEAAMDE
modifications: monobromobimane (mBBr) on Cys 50
notes: as for B1
B11: K53C arrestin-1 (bovine, His(6), C63A/C143A) labeled with monobromobimane (other)
chain: MHHHHHHKANKPAPNHVIFKKISRDKSVTIYLGKRDYIDHVERVEPVDGVVLVDPELVCGKRVYVSLTAAFRYGQEDIDVMGLSFRRDLYFSQVQVFPPVGASGATTRLQESLIKKLGANTYPFLLTFPDYLPCSVMLQPAPQDVGKSAGVDFEIKAFATHSTDVEEDKIPKKSSVRLLIRKVQHAPRDMGPQPRAEASWQFFMSDKPLRLAVSLSKEIYYHGEPIPVTVAVTNSTEKTVKKIKVLVEQVTNVVLYSSDYYIKTVAAEEAQEKVPPNSSLTKTLTLVPLLANNRERRGIALDGKIKHEDTNLASSTIIKEGIDKTVMGILVSYQIKVKLTVSGLLGELTSSEVATEVPFRLMHPQPEDPDTAKESFQDENFVFEEFARQNLKDAGEYKEEKTDQEAAMDE
modifications: monobromobimane (mBBr) on Cys 53
notes: as for B1

What follows are binders tested against T1, bovine enolase-1 (bovine, UniProt Q9XSJ4 1-434, AlexaFluor-546 maleimide on reactive cysteines (pulldown assay only; unlabeled in the quench and activity assays)) (assay: KI quench protection of mBBr-labeled arrestin-1; 0.25 µM arrestin-1, 5 µM (20-fold) enolase-1).
T1 construct: also called Eno1; alpha-enolase
Method: C. Quenching assay. Cysteine mutants of arrestin-1 were labeled with monobromobimane (mBBr, ThermoFisher), reacting the arrestin-1 protein with 100-fold molar excess of the fluorescent label for two hours at room temperature. The unreacted label was removed by dialyzing against three sequential changes of 500-volumes of LAP200 buffer. […] Fluorescence quenching of the mBBr fluorophore was performed using 0.25 μM mBBr-labeled arrestin-1 with 100 mM potassium iodide in the presence or absence of 5 μM bovine enolase-1 that had been heterologously expressed and purified as previously described for arrestin-1, monitoring fluorescence emission at 470 nm. To determine the degree to which enolase-1 shielded a residue from quenching by potassium iodide, a protection factor was calculated as follows: […]
C. Mapping interaction of arrestin-1 with enolase-1. […] The fluorescence emission of the mBBr-labeled arrestin-1 with and without potassium iodide was measured to determine the range of quenching by KI. The fluorescence emission quench by KI with and without enolase-1 was then measured. A quench protection factor was calculated as described in the experimental procedures (Table 2). […] When mapped onto the surface of the arrestin-1 structure, these residues largely mapped to a single surface along the “bottom” of the arrestin protein (FIG. 2B).

T1 sequence (Q9XSJ4 whole entry): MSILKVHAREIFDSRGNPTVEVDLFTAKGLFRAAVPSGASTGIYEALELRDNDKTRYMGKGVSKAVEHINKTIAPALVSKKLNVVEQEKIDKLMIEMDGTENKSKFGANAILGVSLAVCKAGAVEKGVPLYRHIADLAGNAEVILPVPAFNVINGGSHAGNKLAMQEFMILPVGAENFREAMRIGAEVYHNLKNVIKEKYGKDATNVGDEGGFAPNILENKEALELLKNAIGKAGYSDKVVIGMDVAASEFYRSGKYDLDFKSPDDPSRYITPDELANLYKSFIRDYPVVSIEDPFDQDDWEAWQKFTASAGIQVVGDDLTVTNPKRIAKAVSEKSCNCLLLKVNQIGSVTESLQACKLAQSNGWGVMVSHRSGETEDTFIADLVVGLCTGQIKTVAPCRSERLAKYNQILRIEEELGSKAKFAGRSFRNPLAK

**Q.** For B1, which “F(A+E+K) (fluorescence with enolase-1 and KI)” value is on record?
**A.** The value was 19200.

**Q.** What about the “Pf (quench protection factor)” value of the same binder?
**A.** The value was 0.787.

**Q.** For B2, which “F(A+E+K) (fluorescence with enolase-1 and KI)” value is on record?
**A.** Its value is 2850.

**Q.** And the “Pf (quench protection factor)” value?
**A.** Its value is 0.484.

**Q.** B3 was tested. Which “F(A+E+K) (fluorescence with enolase-1 and KI)” value did it give?
**A.** Its value is 16600.

**Q.** What about the “Pf (quench protection factor)” value of the same binder?
**A.** Its value is 0.564.

**Q.** B4 was tested. Which “F(A+E+K) (fluorescence with enolase-1 and KI)” value did it give?
**A.** Its value is 3680.

**Q.** What about the “Pf (quench protection factor)” value of the same binder?
**A.** Its value is 0.772.

**Q.** For B5, which “F(A+E+K) (fluorescence with enolase-1 and KI)” value is on record?
**A.** The value was 1040.

**Q.** What about the “Pf (quench protection factor)” value of the same binder?
**A.** Its value is 0.026.

**Q.** Which “F(A+E+K) (fluorescence with enolase-1 and KI)” value does the source give for B6 here?
**A.** The value was 17200.

**Q.** What about the “Pf (quench protection factor)” value of the same binder?
**A.** The value was 0.732.

**Q.** For B7, which “F(A+E+K) (fluorescence with enolase-1 and KI)” value is on record?
**A.** Its value is 5490.

**Q.** And the “Pf (quench protection factor)” value?
**A.** Its value is 1.2.

**Q.** What does the source list for B8?
**A.** F(A+E+K) (fluorescence with enolase-1 and KI): 11100; Pf (quench protection factor): 0.467

**Q.** Which results are given for B9?
**A.** F(A+E+K) (fluorescence with enolase-1 and KI): 9500; Pf (quench protection factor): 1.08

**Q.** Which results are given for B10?
**A.** F(A+E+K) (fluorescence with enolase-1 and KI): 8140; Pf (quench protection factor): 0.297

**Q.** With B11 as the binder, how does the “F(A+E+K) (fluorescence with enolase-1 and KI)” value read?
**A.** The value was 11000.

**Q.** What about the “Pf (quench protection factor)” value of the same binder?
**A.** Its value is 0.314.
